From publication doi:10.1101/2023.01.26.525422, “Histone-organized chromatin in bacteria” (bioRxiv, 2023)

Assays:
Bd0055 = biological target: T1, Bd0055 (Bdellovibrio bacteriovorus HD100, UniProt Q6MRM1 1-64); experiment: X-ray crystallography; 10 mM NaCl, 0.1 mM EDTA, 50 mM HEPES pH 7.5; 16:1 protein to DNA; 1 dimer per 2.5 bp; FP/FRET: 10 nM DNA, 10 mM NaCl, 1 mM EDTA, 50 mM HEPES pH 6, RT; EMSA: 1 uM DNA, 10 mM NaCl, 1 mM EDTA, 50 mM HEPES pH 7.5, RT; conditions: protein: recombinant; chain copies: 2; blunt
T1 sequence: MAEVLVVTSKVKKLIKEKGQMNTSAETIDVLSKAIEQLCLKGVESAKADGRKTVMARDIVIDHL

[1] = biological target: the molecule itself; experiment: crystal structure; apo Bd0055; hanging drop, 3.2 M (NH4)2SO4, 100 mM BICINE pH 9; 1.8 Å

B1: 35 bp DNA (dsDNA)
DNA 1: TCTTGCACTAAGAGCTACTGGAGTGCGTCAGATGT
DNA 2: ACATCTGACGCACTCCAGTAGCTCTTAGTGCAAGA
Bd0055
  binding result: binds

B2: Bd0055, Bdellovibrio bacteriovorus histone (natural protein, Bdellovibrio bacteriovorus HD100, UniProt Q6MRM1 1-64, looked up)
chain: T1 sequence
notes: Bd0055, singlet histone fold protein of Bdellovibrio bacteriovorus HD100; the ORF was expressed; No tag is mentioned; purified by ion exchange, heparin and size exclusion; also called wildtype Bd0055; B. bacteriovorus histone; source: E. coli, codon-optimized ORF in a pET vector, purified (SP HP, Heparin HP, S75)
[1]
  stoichiometry N: 2
